Reference: publication PMC6406002, “Comparison of the functional properties of trimeric and monomeric CaiT of Escherichia coli” (Scientific Reports, 2019)
Blank lines part the entries; values can stand above or below the substance they belong to.

How the values were obtained:
[1] = system: T1, C[N+](C)(C)C[C@H](O)CC(=O)O; experiment: purified protein; type: biochemical, Escherichia coli; details: labelled compound, proteoliposomes preloaded with 10 mM L-carnitine, potassium phosphate pH 7.5, 25 °C
T1 construct: full-length with C-terminal 6His tag (pET21a), expressed in E. coli JW0039 (delta caiT), Ni-NTA purified; homotrimer (D288A and D288R mostly monomeric); DDM-solubilized or in proteoliposomes

CaiT-M295E (E. coli) = CaiT-M295E (E. coli) (UniProt P31553); experiment: native gel or EMSA; blue native PAGE, 4–16.5% gradient gel, 5 µg purified protein per lane, in detergent solution
CaiT-R299A (E. coli) = CaiT-R299A (E. coli) (UniProt P31553); experiment: as above

Substance: CaiT (Escherichia coli K-12)
Km [1]: 45.3 ± 6.9 µM
Vmax [1]: 2.13 µmol/min/mg

Substance: CaiT (Escherichia coli K-12; D288A)
Km ([1]; mostly monomeric variant): 114.1 ± 17.9 µM
Vmax ([1]; mostly monomeric variant): 1.86 µmol/min/mg

percent of the protein in the monomeric state (CaiT-M295E (E. coli)): > 80%
Substance: CaiT-M295E (from UniProt P31553 1-504) (natural protein)

percent of the protein in the monomeric state (CaiT-R299A (E. coli)): > 80%
Substance: CaiT-R299A (from UniProt P31553 1-504) (natural protein)
